Data published in publication PMC8534003, “The Chemokine-Based Peptide, CXCL9(74-103), Inhibits Angiogenesis by Blocking Heparan Sulfate Proteoglycan-Mediated Signaling of Multiple Endothelial Growth Factors” (Cancers, 2021).

Experiments:
[1] = test system: human microvascular endothelial cells (HMVECs); test: xCELLigence chemotaxis assay (HMVEC migration); assay type: cell-based; settings: EGF 10 ng/mL, FGF-2 30 ng/mL or VEGF165 10 ng/mL in lower chamber
Method: To evaluate the effect of the CXCL9-derived peptides on growth factor-induced endothelial cell migration, the xCELLigence® real-time cell analyzer (RTCA DP) system (ACEA Biosciences, Inc.; San Diego, CA, USA) was used. First, 160 µL MCDB131 medium (Gibco) supplemented with 0.4% (v/v) FCS (control medium) or 160 µL control medium with 30 ng/mL FGF-2, 10 ng/mL VEGF165 or 10 ng/mL EGF were added to the lower chamber of a cell invasion/migration (CIM)-Plate (ACEA Biosciences, Inc.). After assembly of the lower and upper chamber, 50 µL of serum-free MCDB131 medium was added in the upper wells. Following equilibration of the plate at 37 °C for 1 h, HMVECs were added in the upper chamber at 4 × 10^4 cells in 100 µL/well. CXCL9(74-103) or CXCL9(86-103) was added together with the cells in the upper compartment at a concentration of 0.3 or 3 µM. The assembled CIM-Plate was left at room temperature for 30 min to allow the cells to settle onto the membrane. Finally, the plate was placed in the instrument at 37 °C to monitor cell migration for 15 h. Cell migration from one compartment to the other was recorded (one recording every minute) as changes in electrical impedance. These changes were converted into cell indices, as a measure of cell migration.

[2] = test system: human microvascular endothelial cells (HMVECs); test: xCELLigence adhesion assay; assay type: cell-based; settings: 50 ng/mL, 1 h, compared to untreated cells
Method: The wells of an E-plate (ACEA Biosciences, Inc.) were washed and coated with 0.1% (v/v) gelatin in phosphate-buffered saline (PBS) at 37 °C for 1 h. Following a washing step, wells were incubated with 0.1% (v/v) bovine serum albumin (BSA) in PBS at 37 °C for 1 h. After washing, 50 µL basal MCDB131 medium was added and the plate was allowed to equilibrate at 37 °C. HMVECs were harvested and seeded at 4 × 10^4 cells/well together with 50 ng/mL VEGF165 with or without 0.03, 0.3 or 3 µM of CXCL9(74-103) or 3 µM of CXCL9(86-103) in 100 µL control medium (vide supra). Real-time changes in electrical impedance depicted as cell indices, as measure for cell adhesion and spreading, were analyzed using the xCELLigence® RTCA DP System. The adhesion of HMVECs was analyzed 1 h after seeding.

[3] = test system: human microvascular endothelial cells (HMVECs); test: Endothelial cell proliferation assay (MTT or ATP lite); assay type: cell-based; settings: EGF, VEGF165 5 ng/mL or FGF-2 3 ng/mL as single stimulus
Method: The ability of the CXCL9-derived peptides to inhibit growth factor-induced proliferation of endothelial cells was assessed. HMVECs were seeded at 5 × 10^3 cells/well in EBM™-2 medium containing 1% (v/v) FCS (proliferation medium). After settling of the cells, they were stimulated with EGF, VEGF165 (both 5 ng/mL) or FGF-2 (3 ng/mL) as a single stimulus or in combination with CXCL9(86-103) or CXCL9(74-103) at 0.3 or 3 µM in proliferation medium or left untreated. HMVECs were also treated with 0.3 or 3 µM of CXCL9(74-103) or 3 µM of CXCL9(86-103) alone to assess the effect of CXCL9-derived peptide treatment on spontaneous proliferation. After 3 to 4 days, a 3-(4,5-dimethylthiazol-2-yl)-2,5-diphenyl tetrazolium bromide (MTT) or ATP lite assay was performed. The ATP lite assay was performed according to the manufacturer’s instructions (Perkin Elmer, Waltham, MA). When MTT was used as substrate, the medium was replaced with 200 µL of MTT solution (RPMI without phenol red containing 0.4 g/L MTT) and the cells were incubated at 37 °C and 5% CO2 in the dark for 4 hours. Then, the MTT solution was discarded and the formed formazan crystals were dissolved in 200 µL acidic propanol [0.04 M HCl, 0.1% (v/v) NP-40 in isopropanol] under continuous shaking in the dark for 10 min. The optical densities were measured at 570 nm and 630 nm (reference wavelength).

[4] = fold lower affinity than FGF-2; cited from earlier work
Excerpt: In our present study, we wanted to explore the potential of CXCL9(74-103), a high affinity GAG-binding peptide, to interfere with angiogenesis by targeting growth factor-induced signaling cascades and associated processes. […] The obtained KD value lies within the range of the concentrations that were applied in the different in vivo and in vitro assays reported here. FGF-2-mediated proliferation, chemotaxis and sprouting in vitro was diminished by CXCL9(74-103). Also in vivo, CXCL9(74-103) treatment attenuated FGF-2-mediated neovascularization in the Matrigel plug assay. The inhibitory mechanism responsible for countering FGF-2 could be that (1) by direct interaction with FGF-2, CXCL9(74-103) can t ...

B1: VEGF165: human recombinant VEGF165 (Biolegend), stimulus (protein)
chain: MNFLLSWVHWSLALLLYLHHAKWSQAAPMAEGGGQNHHEVVKFMDVYQRSYCHPIETLVDIFQEYPDEIEYIFKPSCVPLMRCGGCCNDEGLECVPTEESNITMQIMRIKPHQGQHIGEMSFLQHNKCECRPKKDRARQENPCGPCSERRKHLFVQDPQTCKCSCKNTDSRCKARQLELNERTCRCDKPRR
enhancement of migration by growth factor alone [1]: significant enhancement of endothelial cell migration | adhesion in response to VEGF165 alone [2]: HMVECs adhered more profoundly to the substratum compared to untreated cells | enhancement of proliferation by growth factor alone [3]: significant enhancement of proliferation | affinity for heparin compared to FGF-2 [4]: 8 fold
